The text below walks through data of patent publication US20230143003A1 (JULIUS MAXIMILIANS UNIVERSIT T W RZBURG, published 2023).

Where two headings read alike, the source gives them in different places.

Test [1] addresses T1, hROR2-Fc (human ROR2 Fc fusion protein) (human, UniProt Q01974 34-403, limits assumed).
T1 construct: Given both as hROR2-Fc and as Fc-hROR2, so the order of the two parts is not certain; also called Fc-hROR2; not shown: human Fc part (captured by a mouse anti-human IgG CH2 / Fcγ mAb)
In words: SPR (Biacore X100), Fc-hROR2 captured on CM5 chip via mouse anti-human Fcγ mAb, Fab as analyte, 1:1 binding model. (SPR reads the build-up and loss of mass on a sensor chip optically.)

For test [2], the target named is T1, hROR2-Fc (human ROR2 Fc fusion protein). Briefly: SPR, Biacore X100; hROR2-Fc captured, Fab injected.
Experimental: (§1) A CM5 chip immobilized with a mouse anti-human Fcγ mAb was used to capture Fc-hROR2.
(§2) Kinetic and thermodynamic parameters for the ROR2 binding of purified anti-ROR2 Fab variants were measured by use of SPR as previously described [29], performed on a Biacore X100 instrument using Biacore reagents and software (GE Healthcare). Briefly, a CM5 sensor chip was immobilized with a mouse anti-human IgG CH2 mAb in order to capture the hROR2-Fc antigen.
Test [3] shares this target. Briefly: SPR (Biacore X100), Fc-hROR2 captured on CM5 chip via mouse anti-human Fcγ mAb, Fab as analyte, 1:1 binding model. The source holds these as a separate data set.
Experimental: as §1, §2
For test [4], the target named is T2, human ROR1 on cells (MDA-MB-231, ROR2-, ROR1+; also 786-O, ROR2+, ROR1+) (human, UniProt Q01973 30-937).
T2 construct: whole, on cells
Briefly: flow cytometry on MDA-MB-231 cells (ROR2-, ROR1+); Fab followed by PE-conjugated goat anti-human F(ab')2 pAbs.
Experimental: Cells were analyzed using a FACSCanto instrument (BD Biosciences) and FlowJo analytical software (Tree Star).

B1: X3.6 (Fab, V domains shown)
VH: QSVKESEGGLFKPTDTLTLTCTVSGFSLSSYGVTWVRQAPGSGLEWIGYINTAGNTYYASWAKSRSTITRNTNENTVTLKMTSLTAADTATYFCARDSRNSLNIWGPGTLVTVSS
VL: DPMLTQTPSSTSTAVGDTVTIKCQASQSISSDLSWYQQKPGQRPKLLIYQASTLASGVPSRFKGSGYGTEYTLTISGVQREDAAIYYCLGGYADASYRTAFGGGTKLEIK
notes: one of the top 12 chimeric rabbit/human anti-human ROR2 Fabs selected from the focused HCDR3 mutagenesis library
By Kd is commonly meant the concentration at which binding is half-saturated. One may read the koff as the first-order rate constant of dissociation. As usually defined, the kon is the rate constant with which the complex forms. High values mean fast association, low ones slow association. In test [1], B1 returned an equilibrium dissociation constant (Kd) of 3.2 nM, a dissociation rate constant (koff) of 0.00019 s⁻¹ and a kon of 60000 M⁻¹ s⁻¹.

B2: XBR2-401 Fab (parental chimeric rabbit/human anti-human ROR2 Fab) (Fab, V domains shown)
VH: QSVKESEGGLFKPTDTLTLTCTVSGFSLSSYGVTWVRQAPGSGLEWIGYINTAGNTYYASWAKSRSTITRNTNENTVTLKMTSLTAADTATYFCARDWTSLNIWGPGTLVTVSS
VL: DPMLTQTPSSTSTAVGDTVTIKCQASQSISSDLSWYQQKPGQRPKLLIYQASTLASGVPSRFKGSGYGTEYTLTISGVQREDAAIYYCLGGYADASYRTAFGGGTKLEIK
notes: Chimeric rabbit/human Fab (rabbit variable domains, human constant domains, kappa light chain, His tag)
The molecule B2 registered a Kd in test [1] of 7 nM.

B3: X4.21 (Fab, V domains shown)
VH: QSVKESEGGLFKPTDTLTLTCTVSGFSLSSYGVTWVRQAPGSGLEWIGYINTAGNTYYASWAKSRSTITRNTNENTVTLKMTSLTAADTATYFCARDSGVVSLNIWGPGTLVTVSS
VL: DPMLTQTPSSTSTAVGDTVTIKCQASQSISSDLSWYQQKPGQRPKLLIYQASTLASGVPSRFKGSGYGTEYTLTISGVQREDAAIYYCLGGYADASYRTAFGGGTKLEIK
notes: as for B1
In test [1], B3 had a Kd of 3.4 nM, a koff of 8.1e-05 s⁻¹ and a kon of 24000 M⁻¹ s⁻¹.

B4: X2.7 (Fab, V domains shown)
VH: QSVKESEGGLFKPTDTLTLTCTVSGFSLSSYGVTWVRQAPGSGLEWIGYINTAGNTYYASWAKSRSTITRNTNENTVTLKMTSLTAADTATYFCARDSMSLNIWGPGTLVTVSS
VL: DPMLTQTPSSTSTAVGDTVTIKCQASQSISSDLSWYQQKPGQRPKLLIYQASTLASGVPSRFKGSGYGTEYTLTISGVQREDAAIYYCLGGYADASYRTAFGGGTKLEIK
notes: as for B1
In test [1], B4 had a Kd of 1.5 nM, a koff of 0.0001 s⁻¹ and a kon of 69000 M⁻¹ s⁻¹.

B5: X4.35 (Fab, V domains shown)
VH: QSVKESEGGLFKPTDTLTLTCTVSGFSLSSYGVTWVRQAPGSGLEWIGYINTAGNTYYASWAKSRSTITRNTNENTVTLKMTSLTAADTATYFCARDSRRKSLNIWGPGTLVTVSS
VL: DPMLTQTPSSTSTAVGDTVTIKCQASQSISSDLSWYQQKPGQRPKLLIYQASTLASGVPSRFKGSGYGTEYTLTISGVQREDAAIYYCLGGYADASYRTAFGGGTKLEIK
notes: as for B1
In test [1], B5 returned a Kd of 31 nM, an off-rate (koff) of 0.0017 s⁻¹ and an on-rate constant (kon) of 54000 M⁻¹ s⁻¹.

B6: X4.3 (Fab, V domains shown)
VH: QSVKESEGGLFKPTDTLTLTCTVSGFSLSSYGVTWVRQAPGSGLEWIGYINTAGNTYYASWAKSRSTITRNTNENTVTLKMTSLTAADTATYFCARDWGNWSLNIWGPGTLVTVSS
VL: DPMLTQTPSSTSTAVGDTVTIKCQASQSISSDLSWYQQKPGQRPKLLIYQASTLASGVPSRFKGSGYGTEYTLTISGVQREDAAIYYCLGGYADASYRTAFGGGTKLEIK
notes: as for B1
In test [1], B6 returned a Kd of 1.3 nM, a koff of 3.8e-05 s⁻¹ and a kon of 30000 M⁻¹ s⁻¹.

B7: X4.12 (Fab, V domains shown)
VH: QSVKESEGGLFKPTDTLTLTCTVSGFSLSSYGVTWVRQAPGSGLEWIGYINTAGNTYYASWAKSRSTITRNTNENTVTLKMTSLTAADTATYFCARDYMMNSLNIWGPGTLVTVSS
VL: DPMLTQTPSSTSTAVGDTVTIKCQASQSISSDLSWYQQKPGQRPKLLIYQASTLASGVPSRFKGSGYGTEYTLTISGVQREDAAIYYCLGGYADASYRTAFGGGTKLEIK
notes: as for B1
In test [1], B7 returned a Kd of 2.8 nM, a koff of 0.00015 s⁻¹ and a kon of 53000 M⁻¹ s⁻¹.

B8: X2.23 (Fab, V domains shown)
VH: QSVKESEGGLFKPTDTLTLTCTVSGFSLSSYGVTWVRQAPGSGLEWIGYINTAGNTYYASWAKSRSTITRNTNENTVTLKMTSLTAADTATYFCARDYTSLNIWGPGTLVTVSS
VL: DPMLTQTPSSTSTAVGDTVTIKCQASQSISSDLSWYQQKPGQRPKLLIYQASTLASGVPSRFKGSGYGTEYTLTISGVQREDAAIYYCLGGYADASYRTAFGGGTKLEIK
notes: as for B1
As for B8, in test [1], the equilibrium dissociation constant (Kd) stood at 1.4 nM, the dissociation rate constant (koff) is 4.7e-05 s⁻¹ and the kon was 33000 M⁻¹ s⁻¹.

B9: X4.9 (Fab, V domains shown)
VH: QSVKESEGGLFKPTDTLTLTCTVSGFSLSSYGVTWVRQAPGSGLEWIGYINTAGNTYYASWAKSRSTITRNTNENTVTLKMTSLTAADTATYFCARDNGSTSLNIWGPGTLVTVSS
VL: DPMLTQTPSSTSTAVGDTVTIKCQASQSISSDLSWYQQKPGQRPKLLIYQASTLASGVPSRFKGSGYGTEYTLTISGVQREDAAIYYCLGGYADASYRTAFGGGTKLEIK
notes: as for B1
Turning to B9, in test [1], the Kd is 10 nM, the koff was determined as 0.00034 s⁻¹ and the kon came to 33000 M⁻¹ s⁻¹.

B10: X2.12 (Fab, V domains shown)
VH: QSVKESEGGLFKPTDTLTLTCTVSGFSLSSYGVTWVRQAPGSGLEWIGYINTAGNTYYASWAKSRSTITRNTNENTVTLKMTSLTAADTATYFCARDTMSLNIWGPGTLVTVSS
VL: DPMLTQTPSSTSTAVGDTVTIKCQASQSISSDLSWYQQKPGQRPKLLIYQASTLASGVPSRFKGSGYGTEYTLTISGVQREDAAIYYCLGGYADASYRTAFGGGTKLEIK
notes: as for B1
In the case of B10, in test [1], the Kd was found to be 1.2 nM, the koff was found to be 4e-05 s⁻¹ and the kon came out at 34000 M⁻¹ s⁻¹.

B11: X3.21 (Fab, V domains shown)
VH: QSVKESEGGLFKPTDTLTLTCTVSGFSLSSYGVTWVRQAPGSGLEWIGYINTAGNTYYASWAKSRSTITRNTNENTVTLKMTSLTAADTATYFCARDGLTSLNIWGPGTLVTVSS
VL: DPMLTQTPSSTSTAVGDTVTIKCQASQSISSDLSWYQQKPGQRPKLLIYQASTLASGVPSRFKGSGYGTEYTLTISGVQREDAAIYYCLGGYADASYRTAFGGGTKLEIK
notes: as for B1
With B11, in test [1], the affinity, expressed as Kd, was 1.9 nM; the koff worked out at 9.2e-05 s⁻¹; the kon was determined as 49000 M⁻¹ s⁻¹.

B12: X3.13 (Fab, V domains shown)
VH: QSVKESEGGLFKPTDTLTLTCTVSGFSLSSYGVTWVRQAPGSGLEWIGYINTAGNTYYASWAKSRSTITRNTNENTVTLKMTSLTAADTATYFCARDKGWSLNIWGPGTLVTVSS
VL: DPMLTQTPSSTSTAVGDTVTIKCQASQSISSDLSWYQQKPGQRPKLLIYQASTLASGVPSRFKGSGYGTEYTLTISGVQREDAAIYYCLGGYADASYRTAFGGGTKLEIK
notes: as for B1
On to B12, for which, in test [1], the Kd was determined as 1.1 nM, the dissociation rate constant (koff) worked out at 2.7e-05 s⁻¹ and the kon came to 26000 M⁻¹ s⁻¹.

B13: hX3.12.8 Fab (Fab, V domains shown)
VH: EQQVVESGGGLVQPGGSLRLSCAASGFSLSSYGVTWVRQAPGKGLEWVGYINTAGNTYYASWAKSRFTISRDNSKNTVYLQMNSLRAEDTAVYYCARDDRWSLNIWGQGTLVTVSS
VL: DPMLTQSPSSLSASVGDRVTITCQASQSISSDLSWYQQKPGKAPKLLIYQASTLASGVPSRFKGSGYGTEYTLTISSLQPEDFATYYCLGGYADASYRTAFGGGTKLEIK
notes: The text says that hX3.12.5 to hX3.12.8 all utilized VL2
For the molecule B13, the Kd in test [2] stood at 5.2 nM. In test [3], this molecule displayed a koff of 0.00067 s⁻¹ and a kon of 130000 M⁻¹ s⁻¹.

B14: h401.6 Fab (hX3.12.6 framework regions with parental 401 CDR sequences) (Fab, V domains shown)
VH: EVQLVESGGGLVQPGGSLRLSCAASGFTFSSYGVTWVRQAPGKGLEWVSYINTAGNTYYASWAKSRFTISRDNAKNSLYLQMNSLRAEDTAVYYCARDWTSLNIWGQGTLVTVSS
VL: DPMLTQSPSSLSASVGDRVTITCQASQSISSDLSWYQQKPGKAPKLLIYQASTLASGVPSRFKGSGYGTEYTLTISSLQPEDFATYYCLGGYADASYRTAFGGGTKLEIK
notes: this is an inference
For the molecule B14, the Kd in test [2] was 16 nM. Besides, the binding result in test [4] is given as “no binding”. In test [3], this molecule displayed an off-rate constant (koff) of 0.00023 s⁻¹ and a kon of 14000 M⁻¹ s⁻¹.

B15: hX3.12.7 Fab (Fab, V domains shown)
VH: EQQVVESGGGLVQPGGSLRLSCAVSGFSLSSYGVTWVRQAPGKGLEWIGYINTAGNTYYASWAKSRFTISRNTNENTVYLQMNSLRAEDTAVYFCARDDRWSLNIWGQGTLVTVSS
VL: DPMLTQSPSSLSASVGDRVTITCQASQSISSDLSWYQQKPGKAPKLLIYQASTLASGVPSRFKGSGYGTEYTLTISSLQPEDFATYYCLGGYADASYRTAFGGGTKLEIK
notes: as for B13
Consider B15, for which the affinity in test [2], expressed as Kd, was 1.4 nM. In addition, in test [3], the dissociation rate constant (koff) was found to be 0.00016 s⁻¹ and the kon came to 110000 M⁻¹ s⁻¹.

B16: XBR2-401-hX3.12.6 Fab (affinity matured and humanized) (Fab, V domains shown)
VH: EVQLVESGGGLVQPGGSLRLSCAASGFTFSSYGVTWVRQAPGKGLEWVSYINTAGNTYYASWAKSRFTISRDNAKNSLYLQMNSLRAEDTAVYYCARDDRWSLNIWGQGTLVTVSS
VL: DPMLTQSPSSLSASVGDRVTITCQASQSISSDLSWYQQKPGKAPKLLIYQASTLASGVPSRFKGSGYGTEYTLTISSLQPEDFATYYCLGGYADASYRTAFGGGTKLEIK
notes: Fab expressed in E. coli
With B16, the affinity in test [2], expressed as Kd, was 3.8 nM. Besides, the binding result in test [4] was “no binding”. In test [3], this molecule displayed a koff of 0.00022 s⁻¹ and a kon of 60000 M⁻¹ s⁻¹.

B17: XBR2-401-hX3.12.5 Fab (affinity matured and humanized) (Fab, V domains shown)
VH: EVQLVESGGGLIQPGGSLRLSCAASGFTVSSYGVTWVRQAPGKGLEWVSYINTAGNTYYASWAKSRFTISRDNSKNTLYLQMNSLRAEDTAVYYCARDDRWSLNIWGQGTLVTVSS
VL: DPMLTQSPSSLSASVGDRVTITCQASQSISSDLSWYQQKPGKAPKLLIYQASTLASGVPSRFKGSGYGTEYTLTISSLQPEDFATYYCLGGYADASYRTAFGGGTKLEIK
notes: Fab expressed in E. coli
On to B17, for which, in test [2], the affinity, expressed as Kd, was 2.6 nM. For the same molecule, in test [4], the binding result is “no binding”. In test [3], this molecule gave an off-rate (koff) of 0.00048 s⁻¹ and a kon of 190000 M⁻¹ s⁻¹.
